Measured values taken from the supplement of paper PMC9233669.
Fewer inactive variants are shown than the library holds.

What was measured:
biotinyl-Phe-oxazolone = assay: self-aminoacylation, catalytic enhancement (BFO) (fold over background); higher = more active; k-Seq, kA / k0A0; sequences stand for … in GGGAAUGGAUCCACAUCUACGAAUUC…UUCACUGCAGACUUGACGAAGCUG
Method in brief: (§1)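 Catalytic enhancement equals the median kA over the uncatalyzed rate, the latter read from the low-activity peak of a bimodal Gaussian fit. Values of kA came from fitting each sequence's fraction reacted to a pseudo-first-order model, with 1000 bootstraps. Reacted RNA was captured with streptavidin and quantified by triplicate qPCR and Illumina sequencing after 90 minutes at room temperature with 2–1250 μM biotinyl-aminoacyl-oxazolone and 0.43 μM mutagenized RNA pools bearing a 21-nt variable region.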

biotinyl-Ile-oxazolone = assay: self-aminoacylation, catalytic enhancement (BIO) (fold over background); higher = more active; k-Seq, kA / k0A0; sequences stand for … in GGGAAUGGAUCCACAUCUACGAAUUC…UUCACUGCAGACUUGACGAAGCUG
Method in brief: as §1

biotinyl-Met-oxazolone = assay: self-aminoacylation, catalytic enhancement (BMO) (fold over background); higher = more active; k-Seq, kA / k0A0; sequences stand for … in GGGAAUGGAUCCACAUCUACGAAUUC…UUCACUGCAGACUUGACGAAGCUG
Method in brief: as §1

biotinyl-Val-oxazolone = assay: self-aminoacylation, catalytic enhancement (BVO) (fold over background); higher = more active; k-Seq, kA / k0A0; sequences stand for … in GGGAAUGGAUCCACAUCUACGAAUUC…UUCACUGCAGACUUGACGAAGCUG
Method in brief: as §1

biotinyl-Leu-oxazolone = assay: self-aminoacylation, catalytic enhancement (BLO) (fold over background); higher = more active; k-Seq, kA / k0A0; sequences stand for … in GGGAAUGGAUCCACAUCUACGAAUUC…UUCACUGCAGACUUGACGAAGCUG
Method in brief: as §1

biotinyl-Trp-oxazolone = assay: self-aminoacylation, catalytic enhancement (BWO) (fold over background); higher = more active; k-Seq, kA / k0A0; sequences stand for … in GGGAAUGGAUCCACAUCUACGAAUUC…UUCACUGCAGACUUGACGAAGCUG
Method in brief: as §1

Sequence	self-aminoacylation (biotinyl-Phe-oxazolone)	self-aminoacylation (biotinyl-Ile-oxazolone)	self-aminoacylation (biotinyl-Met-oxazolone)	self-aminoacylation (biotinyl-Val-oxazolone)	self-aminoacylation (biotinyl-Leu-oxazolone)	self-aminoacylation (biotinyl-Trp-oxazolone)
CCACACUUGACGCAAUCGGUC [Fam1B.1 aminoacylation ribozyme variant]	1.18	1.4	1.44	1.43	1.21	1.54
CCACACUUUAAGCAAUCAGUC [Fam1B.1 aminoacylation ribozyme variant]	1.03	0.76	0.541	0.874	0.69	0.749
CCACACUUUAAGCAAUCGUUC [Fam1B.1 aminoacylation ribozyme variant]	0.911	0.669	0.566	0.849	0.543	0.575
CCACACUUUAAGGAAUCGGUC [Fam1B.1 aminoacylation ribozyme variant]	0.557	0.862	0.717	0.826	0.725	0.644
CCACACUUUAAGUAAUCGGUC [Fam1B.1 aminoacylation ribozyme variant]	0.978	0.653	0.632	0.694	0.667	0.677
CCACAGUUCAACCAAUCGGUC [Fam1B.1 aminoacylation ribozyme variant]	6.48	1.28	1.23	1.26	1.51	5.76
CCACAGUUCAAGCAAUCCGUC [Fam1B.1 aminoacylation ribozyme variant]	1.11	1.19	1.13	1.2	1.16	1.04
CCACAGUUCAAGCAAUCGGGC [Fam1B.1 aminoacylation ribozyme variant]	10	2.04	2.81	2.42	2.18	3.13
CCACAGUUCAAGCAAUCGUUC [Fam1B.1 aminoacylation ribozyme variant]	0.594	0.771	0.742	0.845	0.743	0.472
CCACAGUUCAAGCUAUCGGUC [Fam1B.1 aminoacylation ribozyme variant]	0.851	1.21	1.25	1.27	1.1	0.749
CCACAGUUCAAGGAAUCGGUC [Fam1B.1 aminoacylation ribozyme variant]	1.09	1.23	1.12	1.19	1.33	1.18
CCACAGUUCAGGCAAUCGGUC [Fam1B.1 aminoacylation ribozyme variant]	8.63	2.02	1.65	2.27	2.28	2.25
CCACAUCUCAAGCAAUCGGUC [Fam1B.1 aminoacylation ribozyme variant]	1.41	1.3	0.985	1.33	1.19	1.08
CCACAUUGCAAGCAAUCGGUC [Fam1B.1 aminoacylation ribozyme variant]	1.99	1.75	1.67	1.68	1.87	1.58
CCACAUUUCAAGCAAUCGGUG [Fam1B.1 aminoacylation ribozyme variant]	59.1	6.23	8.9	5.89	12.9	9.35
CCACAUUUCAAGCAAUCGUUC [Fam1B.1 aminoacylation ribozyme variant]	1.13	0.94	0.83	1.16	0.798	0.727
CCACAUUUCAAGCAAUUGGUC [Fam1B.1 aminoacylation ribozyme variant]	0.932	1.22	1.17	0.994	0.857	0.656
CCACCCUUAAAGCAAUCGGUC [Fam1B.1 aminoacylation ribozyme variant]	1.59	1.23	0.96	1.18	1.05	1.4
CCACCCUUCAAGCAAUCGCUC [Fam1B.1 aminoacylation ribozyme variant]	0.977	1.65	1.87	2.28	2.55	2.73
CCACCCUUCAAGCAAUCGGUC [Fam1B.1 aminoacylation ribozyme variant]	19.9	1.05	0.936	1.32	1.16	11.3
CCACCCUUCAAGCUAUCGGUC [Fam1B.1 aminoacylation ribozyme variant]	0.937	1.08	0.845	1.43	1.11	1.09
CCACCCUUCAAGUAAUCGGUC [Fam1B.1 aminoacylation ribozyme variant]	7.55	1.15	1.18	1.25	1.13	7.3
CCACCUUUCAAGCAAUCGGUC [Fam1B.1 aminoacylation ribozyme variant]	2.62	1.44	1.4	1.72	1.35	1.97
CCACGAUUCAAGCAAUCGGUC [Fam1B.1 aminoacylation ribozyme variant]	1.89	1.51	1.78	1.47	1.17	1.95
CCACGCUUCAACCAAUCGGUC [Fam1B.1 aminoacylation ribozyme variant]	65.2	1.16	1.37	1.55	1.99	40.4
CCACGCUUCAAGCAAUCAGUC [Fam1B.1 aminoacylation ribozyme variant]	27.4	0.745	0.811	0.83	0.886	9.22
